According to patent US20230134571A1 (INTERNATIONAL AIDS VACCINE INITIATIVE, published 2023):
Positions count from the first letter of the chain named.

B1: ePGDM13 (antibody, V domains shown)
VH: QAQLVQSGPEVRKPGTSVKVSCKNPGNTLTTYDLHWVRQVPGQGLQWMGWISHEGDKKVIVERFKAKVTIDWDRSTNTAYLQLSGLTSEDTAVYYCAKGSKHRLRDYALYDEDGALNWAVDVDYLANLEFWGQGTAVTVSS
VL: DIVLTQSPLSLSVTPGESASISCKSSHSLQHGDRNNYLAWYVQKPGRSPQLLLDLASERASGVPDRFSGSGSEKDFTLKISRVETEDVGTYYCMQGRESPWTFGQGTKVDIK
B2: PGDM1400 (antibody, V domains shown)
VH: B1 VH with A2V, Q3H, V5T, N24A, T30K, Q39S, E89G, E112D, A126S
VL: B1 VL with I2F, L9H, Q30I, L53I, D54Y, E58S, E73D
B3: ePGDM5 (antibody, V domains shown)
VH: B1 VH
VL: B1 VL with I2F, S26D, L53I, E73R, S81D, T85A
B4: ePGDM9 (antibody, V domains shown)
VH: B1 VH
VL: B1 VL with H27Q, Q30I, L53I, E73R

biological target: HIV Env of isolate Ce1176_A3 (clade C) (HIV); experiment: cell-based or functional assay

| Binder | IC50 (µg/ml) with constrains [µg/mL] |
| --- | --- |
| B1 | 0.031 |
| B2 | 0.526 |
| B3 | 0.022 |
| B4 | 0.022 |

biological target: HIV Env of isolate P1981_C5_3 (clade G) (HIV); experiment: cell-based or functional assay

| Binder | IC50 (µg/ml) with constrains [µg/mL] |
| --- | --- |
| B1 | 0.319 |
| B2 | 18.9 |
| B3 | 0.295 |
| B4 | 0.146 |

biological target: HIV Env of isolate ZM197M.PB7 (clade C) (HIV); experiment: cell-based or functional assay

| Binder | IC50 (µg/ml) with constrains [µg/mL] |
| --- | --- |
| B1 | 0.06 |
| B2 | 0.071 |
| B3 | 0.035 |
| B4 | 0.023 |

biological target: HIV Env of isolate Q842.d12 (clade A) (HIV); experiment: cell-based or functional assay

| Binder | IC50 (µg/ml) with constrains [µg/mL] | IC80 (µg/ml) with constrains [µg/mL] |
| --- | --- | --- |
| B1 | > 100 | > 100 |
| B2 | > 100 | > 100 |
| B3 | > 100 | > 100 |
| B4 | > 100 | > 100 |

biological target: HIV Env of isolate Q23.17 (clade A) (HIV); experiment: cell-based or functional assay

| Binder | IC50 (µg/ml) with constrains [µg/mL] | IC80 (µg/ml) with constrains [µg/mL] |
| --- | --- | --- |
| B1 | 0.001 | 0.004 |
| B2 | 0.001 | 0.005 |
| B3 | 0.001 | 0.004 |
| B4 | – | 0.002 |

biological target: HIV Env of isolate PVO.4 (clade B) (HIV); experiment: cell-based or functional assay

| Binder | IC50 (µg/ml) with constrains [µg/mL] |
| --- | --- |
| B1 | 2.95 |
| B2 | 3.41 |
| B3 | 1.39 |
| B4 | 1.93 |

biological target: HIV Env of isolate 6041.v3.c23 (clade AC) (HIV); experiment: cell-based or functional assay

| Binder | IC50 (µg/ml) with constrains [µg/mL] | IC80 (µg/ml) with constrains [µg/mL] |
| --- | --- | --- |
| B1 | 0.007 | 0.029 |
| B2 | 0.016 | 0.064 |
| B3 | 0.005 | 0.021 |
| B4 | 0.002 | 0.007 |

biological target: HIV Env of isolate CNE20 (clade BC) (HIV); experiment: cell-based or functional assay

| Binder | IC50 (µg/ml) with constrains [µg/mL] |
| --- | --- |
| B1 | 0.004 |
| B2 | 0.005 |
| B3 | 0.004 |
| B4 | 0.002 |

biological target: HIV Env of isolate X1193_C1 (clade G) (HIV); experiment: cell-based or functional assay

| Binder | IC50 (µg/ml) with constrains [µg/mL] |
| --- | --- |
| B1 | 0.095 |
| B2 | 0.094 |
| B3 | 0.039 |
| B4 | 0.039 |

biological target: HIV Env of isolate BJOX025000.01.1 (clade AE) (HIV); experiment: cell-based or functional assay

| Binder | IC50 (µg/ml) with constrains [µg/mL] | IC80 (µg/ml) with constrains [µg/mL] |
| --- | --- | --- |
| B1 | 0.018 | 0.071 |
| B2 | 0.055 | 0.22 |
| B3 | 0.018 | 0.072 |
| B4 | 0.018 | 0.072 |

biological target: HIV Env of isolate T251-18 (clade AG) (HIV); experiment: cell-based or functional assay

| Binder | IC50 (µg/ml) with constrains [µg/mL] | IC80 (µg/ml) with constrains [µg/mL] |
| --- | --- | --- |
| B1 | > 100 | > 100 |
| B2 | > 100 | > 100 |
| B3 | > 100 | > 100 |
| B4 | > 100 | > 100 |

biological target: HIV Env of isolate CAP45.2.00.G3 (clade C) (HIV); experiment: cell-based or functional assay

| Binder | IC50 (µg/ml) with constrains [µg/mL] |
| --- | --- |
| B1 | 0.002 |
| B2 | 0.001 |
| B3 | 0.001 |
| B4 | 0.001 |

biological target: HIV Env of isolate R1166.c01 (clade AE) (HIV); experiment: cell-based or functional assay

| Binder | IC50 (µg/ml) with constrains [µg/mL] | IC80 (µg/ml) with constrains [µg/mL] |
| --- | --- | --- |
| B1 | 0.194 | 0.777 |
| B2 | 1.48 | 5.92 |
| B3 | 0.166 | 0.664 |
| B4 | 0.215 | 0.86 |

biological target: HIV Env of isolate Ce0393_C3 (clade C) (HIV); experiment: cell-based or functional assay

| Binder | IC50 (µg/ml) with constrains [µg/mL] |
| --- | --- |
| B1 | 0.006 |
| B2 | 0.009 |
| B3 | 0.016 |
| B4 | 0.004 |

biological target: HIV Env of isolate 6545.v4.c1 (clade AC) (HIV); experiment: cell-based or functional assay

| Binder | IC50 (µg/ml) with constrains [µg/mL] | IC80 (µg/ml) with constrains [µg/mL] |
| --- | --- | --- |
| B1 | 0.076 | 0.305 |
| B2 | 0.148 | 0.594 |
| B3 | 0.043 | 0.17 |
| B4 | 0.041 | 0.164 |

biological target: HIV Env of isolate 6535.3 (clade B) (HIV); experiment: cell-based or functional assay

| Binder | IC50 (µg/ml) with constrains [µg/mL] |
| --- | --- |
| B1 | > 100 |
| B2 | > 100 |
| B3 | 98.2 |
| B4 | 57.8 |

biological target: HIV Env of isolate Ce2010_F5 (clade C) (HIV); experiment: cell-based or functional assay

| Binder | IC50 (µg/ml) with constrains [µg/mL] |
| --- | --- |
| B1 | > 100 |
| B2 | > 100 |
| B3 | > 100 |
| B4 | > 100 |

biological target: HIV Env of isolate T250-4 a.k.a. CRF250 (clade AG) (HIV); experiment: cell-based or functional assay

| Binder | IC50 (µg/ml) with constrains [µg/mL] | IC80 (µg/ml) with constrains [µg/mL] |
| --- | --- | --- |
| B1 | 0.035 | 0.14 |
| B2 | 0.28 | 1.12 |
| B3 | 0.065 | 0.261 |
| B4 | 0.041 | 0.163 |

biological target: HIV Env of isolate BJOX028000.10.3 (clade AE) (HIV); experiment: cell-based or functional assay

| Binder | IC50 (µg/ml) with constrains [µg/mL] | IC80 (µg/ml) with constrains [µg/mL] |
| --- | --- | --- |
| B1 | 0.035 | 0.139 |
| B2 | 0.121 | 0.483 |
| B3 | 0.021 | 0.086 |
| B4 | 0.019 | 0.078 |

biological target: HIV Env of isolate SC422661.8 (clade B) (HIV); experiment: cell-based or functional assay

| Binder | IC50 (µg/ml) with constrains [µg/mL] |
| --- | --- |
| B1 | 1.56 |
| B2 | 15.7 |
| B3 | 1.33 |
| B4 | 1.33 |

biological target: HIV Env of isolate CNE17 (clade BC) (HIV); experiment: cell-based or functional assay

| Binder | IC50 (µg/ml) with constrains [µg/mL] |
| --- | --- |
| B1 | 0.008 |
| B2 | 0.005 |
| B3 | 0.007 |
| B4 | 0.003 |

biological target: HIV Env of isolate 231965.c01 (clade D) (HIV); experiment: cell-based or functional assay

| Binder | IC50 (µg/ml) with constrains [µg/mL] |
| --- | --- |
| B1 | 0.015 |
| B2 | 0.061 |
| B3 | 0.009 |
| B4 | 0.009 |

biological target: HIV Env of isolate X2088_C9 (clade G) (HIV); experiment: cell-based or functional assay

| Binder | IC50 (µg/ml) with constrains [µg/mL] |
| --- | --- |
| B1 | 64.1 |
| B2 | > 100 |
| B3 | 28.6 |
| B4 | > 100 |

biological target: HIV Env of isolate 1394C9G1(Rev-) (clade C) (HIV); experiment: cell-based or functional assay

| Binder | IC50 (µg/ml) with constrains [µg/mL] |
| --- | --- |
| B1 | 0.003 |
| B2 | 0.003 |
| B3 | 0.002 |
| B4 | 0.001 |

biological target: HIV Env of isolate CNE58 (clade BC) (HIV); experiment: cell-based or functional assay

| Binder | IC50 (µg/ml) with constrains [µg/mL] |
| --- | --- |
| B1 | 0.003 |
| B2 | 0.003 |
| B3 | 0.004 |
| B4 | 0.002 |

biological target: HIV Env of isolate Du156.12 (clade C) (HIV); experiment: cell-based or functional assay

| Binder | IC50 (µg/ml) with constrains [µg/mL] |
| --- | --- |
| B1 | 0.006 |
| B2 | 0.006 |
| B3 | 0.006 |
| B4 | 0.004 |

biological target: HIV Env of isolate CNE53 (clade BC) (HIV); experiment: cell-based or functional assay

| Binder | IC50 (µg/ml) with constrains [µg/mL] |
| --- | --- |
| B1 | 0.015 |
| B2 | 0.026 |
| B3 | 0.02 |
| B4 | 0.007 |

biological target: HIV Env of isolate 249MB10 (clade C) (HIV); experiment: cell-based or functional assay

| Binder | IC50 (µg/ml) with constrains [µg/mL] |
| --- | --- |
| B1 | 0.032 |
| B2 | 0.021 |
| B3 | 0.011 |
| B4 | 0.007 |

biological target: HIV Env of isolate HIV-001428-2.42 (clade C) (HIV); experiment: cell-based or functional assay

| Binder | IC50 (µg/ml) with constrains [µg/mL] |
| --- | --- |
| B1 | 0.003 |
| B2 | 0.014 |
| B3 | 0.003 |
| B4 | 0.002 |
